Assay: soluble on expression in E. coli; label from the status in PepcDB or PDB records

Sequence	soluble on expression in E. coli
MMIKVGAAINGTDSPKAMKREHDNDDGDRTGRHKRPKTDGFTEAIQQGKFEVRLLVSSKSAGAIIGKGGENIKRLRAEFNAHVQVPDSNTPERVCTVTADEKTVLNILKDVLPRLEDNFSERDPCEVRMLVHQSHAGALIGRNGSKIKELREKCSARLKIFTGCAPGSTDRVLITSGEQKNVLGIIEEVMKELKEIPIKGSATPYLPAFNYDPSNISDYGGFPGNMPAGGPPNNRGPAPQRGGQGPPGGPRSYGGAITQGGGQRSFEAGDFQQFRGGPGPVPGYAMSAPGYPPQQGQFGAPNNAGYGYGPGGGGPVTTAQVTIPSDLGGTIIGRGGERIARIRQESGAQITLEQSNGQPERIITIKGTEQQIHSAQYLLQQCVRNSTQGRERFGGSV	not soluble
MKKRIIPIFVPHKGCPHDCIFCNQKKITGVSTDVTSEDARNIIEECLETIDKDADVEIAFFGGSFTAIDIDIQKSLLSVAKEYVEKGLVKDIRMSTRPDCIDEDILSMLKEYKTSIIELGVQSLDEKVLLDSIRGHQSEIVYKSSKMIKNSGIKLGLQMMIGLPADTEEKCIFTAKKFVELKPDCVRVYPTLVVKDTGLEKLMEQNKYNPFTLEESVNIVKKVLVLFYVNNINVIRVGLQATDDIQIGKAVLAGPYHPAFRELVEADMIKDYLEFVILQNKNIKQMLVKSNKKNISKIIGNKKTNVKYMEEKFGVLLKTQESDLDINQLEIVLDGKSLISANMRDIHRKLYDIYDL	not soluble
SLSIKTILIDDEPKAIAILKNKIERLCPDLEIVATIEKPALAFDIINELQPQLVFIDIAMPGMSGFDVLEQFKKPQFEIIFATAFDQYALDAIKQCAIGYLVKPIDNEDLVEAVTNATTNIEQKNALVKNTQLLENINQENFHKKKIVIPSTDGLEFVKVKSITHCEGVDGYTKIHFTNRKPILSSSSIGHFKKLLSHPDFYHVHKSYVTNTNHIIKYLNDGYVTLTGDVTIPVARAKRAEFLEKFRNEG	not soluble
MSLKPGDEVKVLTFGQKGTLLEKTGGNEWNVQIGILKMKVKEKDLEFIKSAPEPKKEKMITAVKGKDYHVSLELDLRGERYENALSRVEKYLDDAVLAGYPRVSIIHGKGTGALRKGVQDLLKNHRSVKSSRFGEAGEGGSGVTVVELKEGHHHHHH	not soluble
MSLDNTEQEKFETYDLDVETVYCRPIIKFPLLLIHAYRVYLALNDHNDIEPRLHSDRLLEIFDPLINGDEQSVKLFIETLWQVRYQFDRWVVKWVERDDATDAQLGLTYQSRSKSNDTYYINRTQKELTDIVLLQSVRNFTGERSAQYWLTPFLSGLIRSSIKQDSVALELLENIDNKMSLSVDTQKEASFALAEGIEPNCQSWQSQSTYFAKSLGTSFEHYWFQKLEYLIWKKMKASESSLPSEELNKFKKYRITSKNSVEHVHPQNDEYNSRLDCETLNSFGNLVLLSPGENSSYSNQDVDKKRIDFERKSHFDALKLREIFGVKGQGLWGKQQIDNHLEDMMAVFAQHYKEGHHHHHH	not soluble
SLQTEESICTKIMKELHSEDSPNALVIKNEHVKKCDTWPSGGEMVVKDLTVKYVDDGNAILENISFSISPGQRVGLLGRTGSGKSTLLSAFLRMLNIKGEIQIDGVSWNSMTLQEWRKAFGVITQKVFIFSGTFRQNLDPNGKWRDEEIWKVADQVGLKSVIEQFPGQLNFTLVDGGYVLSHGHKQLMCLARSVLSKAKIILLDQPSANLDPITYQVIRRVLRQAFAGCTVVLCEHRIEAMLDCQRFLVIEQGNVWQYESLQALLSEKSVFQRALSSSEKMKLFHGRHSSKQKPRTQITAVKEETEEEVQETRL	not soluble
MNFFTSPFSGIPLDQQVTNPNIIVGKHSYYSGYYHGHSFDDCVRYLHPERDDVDKLVIGSFCSIGSGAVFMMAGNQGHRSDWISTFPFFYQDNDNFADARDGFTRSGDTIIGHDVWIGTEAMIMPGVKIGHGAIIASRSVVTKDVAPYEVVGSNPAKHIKFRFSDVEIAMLLEMAWWNWPESWLKESMQSLCSSDIEGLYLNWQSKART	not soluble
MYMKHIENGTRIEGEYIKNKVIQYNMSILTDEVKQPMEEVSLVVKNEEGKIFGGVTGTMYFYHLHIDFLWVDESVRHDGYGSQLLHEIEGIAKEKGCRLILLDSFSFQAPEFYKKHGYREYGVVEDHPKGHSQHFFEKRL	soluble
MAKLFFRYAAMNSGKSTQLLQIANNYESMDKKVALYTSAIDDRYGVGMITSRLNIQRESNTFDAGFDFLAHDYGDTACVLVDEAQFMTPEQAQQLHRLAHKRNIPVICFGLRTDFQGHPFPGSAWLLSLADDVEEIKTICHCGRKATMHIRIDGDGRRVKEGPQVEIGGEARYRAVCGRCFHHDLEHHHHHH	soluble
MGHHHHHHSHMQNADDFIKFLELEQHVEGGFYRSSYRSETAFDPSRQLWSSIYFLLRTGEVSHFHRLTADEMWYFHAGQSLTIYMISPEGELTTAQLGLDLAAGERPQFLVPKGCIFGSAMNQDGFSLVGCMVSPGFTFDDFELFSQEALLAMYPQHKAVVQKLSRPEVN	soluble
MKTCFLSIWRVVDPIYFFFSRLSLIDNDQKSVFRVRLTKYKGHHVVLSDGTHIRKNDVLVKIHLHNIKLIRELQSIESAVRKGIIIYQKVYPSMPLLLDYINNHKKSEKIKGNHWITMLDKGVERLGFDVITPVNPFYRCFKKVSHVPILYLTSKPVSLRHLPNSSYLFISKEKLQKTYQKKDMAGDPLEHHHHHH	not soluble
MAHKKSNRQLIDACRQNFLSHLRLREWRDVHSQLLTVVREHGWRLNEAEATYEQIHLALLTGLLGNLGMKADDDPHYLGARGIKFYLWPGSALAKKAGRWVMAAELVETSRLYARCLAKIEPEWIEKVGAHLLKKSLSEPLEHHHHHH	soluble
MATEGMILTNHDHQIRVGVLTVSDSCFRNLAEDRSGINLKDLVQDPSLLGGTISAYKIVPDEIEEIKETLIDWCDEKELNLILTTGGTGFAPRDVTPEATKEVIEREAPGMALAMLMGSLNVTPLGMLSRPVCGIRGKTLIINLPGSKKGSQECFQFILPALPHAIDLLRDAIVKVKEVHDRSHHHHHH	soluble
MGSDKIHHHHHHMGYAYLRGLRNARLQNNNDETSTVFRSCSVPTFQKMRSAYGRRVVKDVFAPNGGVFINRLVEYVTGQGHDFENMLAQKLAISEPLSSSAQVLPVYEHSLVFGLAERVCNDTSIGYALAYQCTLRDAGLVGYAVSASETAGEALYTLSRLSNVFEVVSASASGGLVDLRWDFGSQGKLDLRHWSEFIATLLVRSLKTLCTGAVAPVGVEFTHTAPSSSEQAVLAFGVKPTYRGRLNRLTFREQDLRQPLRSADAGLLRLLLEHAELLRRRPDRNSNDLSITVERLIMDGMSEGDASLAQVAESLDMSQRTLSRKLASEGTSFFAILEGVRKSLALRYLQQNEKSLSEISFALGYSSLSSFNDAFRRWYDQSPGSYRSDALKEAAVKS	not soluble
AHHHHHHGSRGILDDIDKKIIEILQKDGKVPLREISKITGLAESTIHERIKRLRESGVIKKFTAVVNPEALGYNILAFILIKVKAGKYSEVASKLVKYPEIVEVYETTGDYDMVVKIRTKNSEELNNFLDMVGSIEGVEGTHTMIVLKVHKETTELPVK	soluble
VTVTLCSPTEDDWPGMFLLAAASFTDFIGPESATAWRTLVPTDGAVVVRDGAGPGSEVVGMALYMDLRLTVPGEVVLPTAGLSFVAVAPTHRRRGLLRAMCAELHRRIADSGYPVAALHASEGGIYGRFGYGPATTLHELTVDRRFARFHADAPGGGLGGSSVRLVRPTEHRGEFEAIYERWRQQVPGGLLRPQVLWDELLAECKAAPGGDRESFALLHPDGYALYRVDRTDLKLARVSELRAVTADAHCALWRALIGLDSMERISIITHPQDPLPHLLTDTRLARTTWRQDGLWLRIMNVPAALEARGYAHEVGEFSTVLEVSDGGRFALKIGDGRARCTPTDAAAEIEMDRDVLGSLYLGAHRASTLAAANRLRTKDSQLLRRLDAAFASDVPVQTAFEF	not soluble
MEDLYPSRQNNQPKILKRKDPVIYTDRSKDNQAPITKEQLDSYEKNGFLQIKNFFSEDEVIDMQKAIFELQDSIKDVASDKVIREPESNDIRSIFHVHQDDNYFQDVANDKRILDIVRHLLGSDVYVHQSRINYKPGFKGKEFDWHSDFETWHVEDGMPRMRAISVSIALSDNYSFNGPLMLIPGSHNYFVSCVGETPDNNYKESLKKQKLGVPDEESLRELTRIGGGISVPTGKAGSVTLFESNTMHGSTSNITPYPRNNLFMVYNSVKNRLVEPFSGGEKRPEYIAVREKQPVYSAVNSAWSHPQFEK	soluble
MSLKWIDSHIHVDQYKDEEKSKLLKDVEHSKEIKGLIAVSMNYQSSKETVSLAKRYPFVHPAIGFHPEQPIHKEECEKIYKLIEEHVEDIVAIGEVGLPYYLRKEDKRIAVNSYISVLQRFVELASKYDLPIILHAVYEDADIVCDLLEKYKVSRAHFHWFKGSETTMKRMMRNGYYISITPDVLHKEKIRKIVSYYPLEYMMVETDGPWEFQDDVMTHPGMIREVLKEISVIKNMSVDKVMKTIYENTIQFYPTLTGNKTPTSKFDEGHHHHHH	not soluble
MGSRENLYFQGLEHHHHHHHMGHETKAQLKDYVEVKIMKIKTTVAALSVLSVLSFGAFAADSIDAAQAQNREAIGTVSVSGVASSPMDMREMLNKKAEEKGATAYQITEARSGDTWHATAELYK	soluble
MGSDKIHHHHHHMQHIIKTALQQTFNYKTNKSIYNILVGKKSHQTFFDACSQQQLSLYHSLPLLKYPSFELFLEKINEFNAEMEIMLHPRYTFESMGQTFQAIQLLVQTMSNTKQHVFHFVPISQNNKIQETVKIVYNYIKENQLQIDFENELHNLFKAITLKGPCYLHYYLQGYDEPMYTRQQVSLIEKLSQQQLFEYEMNNLVTMMFELESGEYTILSKIIMKPTLLNQTYITYTKLLEQFTMEDIAAQQQVKINTIEDHVLEILIKGYMSNYDDYVELEDQLQFLNFYQQHRGERLKFYKEQFDTLSYFQLKVLIVGFERGDLNVA	not soluble
NRANPDPNCCLGVFGLSLYTTERDLREVFSKYGPIADVSIVYDQQSRRSRGFAFVYFENVDDAKEAKERANGMELDGRRIRV	soluble
GPGSMAETTIGFRCQDFVLVAAAGLNAFYYIKITDTEDKITELDSHKVVACAGENGPRTHFVEYVKCNMALKKMREHGRMISTHATASFMRNTLAGALRSRDGLYPVNCLLAGFDVPASAEDDVATGAHLYYLDYLGTLQEVPYGCHGYGAPFVTAMLDRMWRPNLTAQEGVELMQKCCDEVKKRVVVSNNTFICKAVTKDGVERVQSVS	soluble
MGSSHHHHHHSSGLVPRGSHMGEMLERQKKRLPSKAKYLKYTASITETGNHEADSSVIFRPHHSDVTCSNARRAESRTLPQICSCILLDHGRRTRPEVRTGMVSLHGSFKGFPCFGIRRGISHVLPGQKLRGSCDNWKKRQN	soluble
WRKKRKDAKNNEVSFSQIKPKKSKLIRVENFEAYFKKQQADSNCGFAEEYEDLKLIGISLPKYAAEIAENRGKNRYNNVLPYDISRVKLSVQTHSTDDYINANYMPGYHSKKDFIATQGPLPNTLKDFWRMVWEKNVYAIVMLTKCVEQGRTKCEEYWPSKQAQDYGDITVAMTSEVVLPEWTIRDFVVKNMQSSESHPLRQFHFTSWPDHGVPDTTDLLINFRYLVRDYMKQIPPESPILVHCSAGVGRTGTFIAIDRLIYQIENENTVDVYGIVYDLRMHRPLMVQTEDQYVFLNQCVLDIIRAQKDSKVDLIYQNTTAMTIYENLERVSMFGKANGYIA	soluble
